B1: FDC-SP SN: supernatant of L cells transfected with FDC-SP expression vector, containing recombinant FDC-SP (protein, UniProt Q8NFU4 18-85, looked up)
Follicular dendritic cell …: FPVSQDQEREKRSISDSDELASGFFVFPYPYPFRPLPPIPFPRFPWFRRNFPIPIPESAPTTPLPSEK
modifications: in L cell culture supernatant
B2: FDC-SP: secreted immuno-modulatory polypeptide expressed by activated follicular dendritic cells (protein, UniProt Q8NFU4 18-85, looked up)
Follicular dendritic cell …: B1 Follicular dendritic cell …

Legend:
[1] = system: mouse B cells stimulated to produce IgA; assay: IgA production by cultured, stimulated mouse splenic B cells (ELISA of supernatants, flow cytometry); type: cell-based; conditions: FIG. 8, C57BL6 spleen B cells cultured 5 days with stimuli and a percentage of supernatant, vs Control SN
Description: A polypeptide of the present invention having immunoregulatory activity inhibits IgA production by B cells in vitro. Whether a polypeptide has immuno-modulatory activity may be determined by in vitro assays. An example of an in vitro assay is described in Example 1. The assay uses B cells, which in one embodiment may be a primary cell obtained from an animal, such as a mouse or human, or in another embodiment may be a B cell line. When obtained from an animal, B cells may be obtained from lymphoid tissues such as spleen, tonsil, and lymph node. […]
Single cell suspensions were generated from the indicated tissues and were pre-incubated with hybridoma supernatant containing Fc receptor blocking antibody. […] Data were analyzed using FlowJo software (TreeStar).
Serum, saliva and bronchoalveolar lavage fluid were collected from 10-14 week old FDC-SP-deficient mice, FDC-SP transgenic mice and strain, age and sex-matched controls. […] Total antibodies levels were determined by coating with anti-mouse IgM or IgA (Jackson ImmunoResearch Laboratories) and NP-specific antibodies levels were determined by coating plates with NP20-BSA (Biosearch Technologies). […]

T lymphoma cells = conditions: secreted FDC-SP; cited from earlier work
B lymphoma cells = conditions: secreted FDC-SP; cited from earlier work
[2] = Toxicity observation in FDC-SP transgenic mice; type: in vivo; conditions: transgenic mice expressing increased levels of FDC-SP polypeptide
Description: FDC-SP transgenic CD1 mice (i.e., mice constitutively expressing FDC-SP in lymphoid tissues) were generated as described (Al-Alwan et al., 2007, J. Immunol., 178:7859-7867). All experimental animals were housed at the Central Animal Care Facility (University of Manitoba, Winnipeg, MB) in compliance with the guidelines established by the Canadian Council on Animal Care.

Molecule | IgA production in vitro [1] | binding to the surface of T lymphoma cells (T lymphoma cells) | binding to the surface of B lymphoma cells (B lymphoma cells) | toxicity associated with the polypeptide [2]
B1 | suppressed |  |  | 
B2 |  | not | can bind | no evidence of toxicity
